# Assay results as given in US20190142902A1 (RELAXERA PHARMAZEUTISCHE GESELLSCHAFT MBH, published 2019).
# B1: -Asp-shRlx, single aa degradation product of synthetic human relaxin-2 (ligand)
# chain 1: ELYSALANKCCHVGCTKRSLARFC
# chain 2: SWMEEVIKLCGRELVRAQIAICGMSTWS
# modifications: pGlu (pyroglutamate) at position 1
# Target: T1, human relaxin receptor RXFP1 (relaxin family peptide receptor 1) (human, UniProt Q9HBX9 1-757)
# T1 sequence (looked up): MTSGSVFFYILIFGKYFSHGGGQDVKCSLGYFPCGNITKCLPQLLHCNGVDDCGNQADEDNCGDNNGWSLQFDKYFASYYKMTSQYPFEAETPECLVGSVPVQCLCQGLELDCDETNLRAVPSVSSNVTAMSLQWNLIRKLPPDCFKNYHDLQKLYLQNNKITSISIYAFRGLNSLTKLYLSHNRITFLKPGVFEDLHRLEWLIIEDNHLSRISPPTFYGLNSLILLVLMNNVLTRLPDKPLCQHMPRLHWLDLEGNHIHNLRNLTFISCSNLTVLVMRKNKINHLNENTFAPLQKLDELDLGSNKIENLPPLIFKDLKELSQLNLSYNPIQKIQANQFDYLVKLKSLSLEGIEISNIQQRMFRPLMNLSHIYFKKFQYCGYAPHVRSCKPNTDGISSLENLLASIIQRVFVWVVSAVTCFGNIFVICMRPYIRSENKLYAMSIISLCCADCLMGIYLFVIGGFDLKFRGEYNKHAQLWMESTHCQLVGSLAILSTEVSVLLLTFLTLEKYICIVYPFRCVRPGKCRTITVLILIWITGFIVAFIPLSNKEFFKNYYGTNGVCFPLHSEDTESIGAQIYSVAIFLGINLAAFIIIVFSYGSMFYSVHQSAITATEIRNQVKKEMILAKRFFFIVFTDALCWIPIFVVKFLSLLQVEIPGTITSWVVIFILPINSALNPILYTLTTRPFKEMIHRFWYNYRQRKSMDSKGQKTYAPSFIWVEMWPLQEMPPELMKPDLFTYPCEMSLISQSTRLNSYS
# Assay: cell-based or functional assay
binder,measurement,value
B1,"cAMP response pEC50 (cAMP reporter gene assay, HEK293T cells overexpressing RXFP1)",10.2 pEC50 (negative decadic logarithm of the half-maximum concentration)
